The results in this text go back to paper PMC10000358, “Development of an inhibiting antibody against equine interleukin 5 to treat insect bite hypersensitivity of horses” (Scientific Reports, 2023).

Where “and” joins values, the source holds several entries; their conditions need not be identical. Equal entries are not always repeated.

The target of assay [1] is T1, equine interleukin 5 with 8 × His-tag (Equus caballus, UniProt O02699).
For assay [2], the target named is T2, equine interleukin 5 with 8 × His-tag (equine (horse), UniProt O02699 20-134).
T2 chain: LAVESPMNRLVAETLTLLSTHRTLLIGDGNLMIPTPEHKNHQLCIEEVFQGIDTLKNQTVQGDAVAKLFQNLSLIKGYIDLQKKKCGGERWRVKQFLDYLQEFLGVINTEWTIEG
The assay can be described thus: ELISA. In general terms: In an ELISA, binding on a coated surface is turned into a signal by an enzyme label.

For assay [3], the target named is T3, BSA (Bos taurus, UniProt P02769).
T3 construct: BSA (serum albumin), negative control coated on the plate
Description: ELISA; titration ELISA: 100 ng eqIL-5/well (or 1% BSA as negative control) immobilised, blocked with 2% MPBST; eqIgG6 antibody titrated from 316 nM, 1 h at RT; detected with anti horse IgG (Fc)-HRP; EC50 by Logistic5 fit; triplicates. The settings on record: both partners purified.

The target of assay [4] is T1, equine interleukin 5 with 8 × His-tag. The assay can be described thus: flow cytometry on cells; cellular in vitro inhibition assay: antibody (screening 1000 nM; titration 1000 nM-0.32 nM) pre-incubated with 5 nM eqIL-5 (related to dimer), then added to 5 x 10^5 eqIL-5 receptor expressing Expi293F cells for 45 min on ice, FACS buffer (2% FCS, 5 mM EDTA in PBS); bound eqIL-5 detected by Penta-His antibody and anti mouse Fc-APC; IC50 by Logistic5 fit; single measurements. The settings on record: both partners purified.

Assay [5] shares this target. Description: ELISA; titration ELISA: 100 ng eqIL-5/well (or 1% BSA as negative control) immobilised, blocked with 2% MPBST; eqIgG6 antibody titrated from 316 nM, 1 h at RT; detected with anti horse IgG (Fc)-HRP; EC50 by Logistic5 fit; triplicates. The conditions noted are these: both partners purified.
Assay [6] has as its target T3, BSA. The assay can be described thus: ELISA; unspecificity ELISA: antigens immobilised at 10 ug/mL in PBS, blocked with 2% MPBST; 100 nM eqIgG6 antibody, 1 h at RT; detected with anti horse IgG (Fc)-HRP. The conditions noted are these: both partners purified.
The target in assay [7] is T1, equine interleukin 5 with 8 × His-tag. Description: flow cytometry on cells; competitive cellular inhibition assay: no pre-incubation; 1000 nM-0.1 nM antibody first put on 5 x 10^5 receptor expressing cells, then 5 nM eqIL-5 (related to dimer) added for 45 min on ice; detection as before. The settings on record: both partners purified. A general note: Flow cytometry measures light scatter and fluorescence of single cells or particles in a stream.

T3 sequence (P02769 25-607): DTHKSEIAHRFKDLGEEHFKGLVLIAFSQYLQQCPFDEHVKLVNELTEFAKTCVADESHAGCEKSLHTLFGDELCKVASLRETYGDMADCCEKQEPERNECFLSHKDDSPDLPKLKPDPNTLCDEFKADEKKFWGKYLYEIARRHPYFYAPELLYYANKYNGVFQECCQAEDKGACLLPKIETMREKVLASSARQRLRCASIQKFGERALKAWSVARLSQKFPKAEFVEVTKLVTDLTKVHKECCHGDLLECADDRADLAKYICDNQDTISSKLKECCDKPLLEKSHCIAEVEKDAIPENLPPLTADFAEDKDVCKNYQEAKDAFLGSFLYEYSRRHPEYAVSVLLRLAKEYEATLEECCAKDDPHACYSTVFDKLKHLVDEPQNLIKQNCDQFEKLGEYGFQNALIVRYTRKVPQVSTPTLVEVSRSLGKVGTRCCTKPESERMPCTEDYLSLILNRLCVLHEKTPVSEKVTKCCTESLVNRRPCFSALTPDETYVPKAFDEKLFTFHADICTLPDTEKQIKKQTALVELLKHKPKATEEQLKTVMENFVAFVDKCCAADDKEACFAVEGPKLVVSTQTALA

B1: NOL225-2-F10 (antibody, V domains shown)
VH: QVQLQQSGGGVVQPGRSLRLSCAASGFTFSSYGMHWVRQAPGKGLEWVAVIWYDGSNKYYADSVKGRFTISRDNSKNTLYLQINSLRAEDTAVYYCARGLYGRSYFDYWGQGTLVTVSS
VL: SYELTQPPSVSVAPGQTAKIVCEGDNIGSKSVHWYQQRPGQAPVLVVYDDTDRPSGIPDRFSGSNSGNTATLTISRVEVGDEADYYCQVWDSGDGHPRVFGGGTKLTVL
Turning to B1, in assay [1], the binding result is recorded as “binds”.

B2: NOL231-2-E2 (eqIgG6 format) (antibody, V domains shown)
VH: QVQLQQSEGGVVQPGRSLRLSCAASGFTFSSYGMHWVRQAPGKGLEWLAVIWYDGSNKYYADSVKGRFTISRDNSKNTLYLQMNSLRAEDTAVYYCARGLFGRSYFDYWGQGTLVTVSS
VL: SYELTQPPSVSVAPGQTAKITCEGDNIGSKSVHWYQQRPGQAPVLVVYDDTDRPSGIPDRFSGSNSGNTATLTISRVEVGDEADYYCQVWDSGDGHPRVFGGGTKLTVL
notes: source: Expi293F suspension cells, purified (HiTrap Fibro PrismA or Protein G HP)
One may read the EC50 as the concentration that produces a half-maximal response. Read a low EC50 as a more potent agent. One may read the IC50 as the point on the concentration scale where inhibition reaches its midpoint. A higher IC50 goes with weaker potency in that assay. In assay [2], B2 had an EC50 of 0.5 nM. In the assay with BSA [3], the binding result is recorded as “no binding (tested: 316 nM)”. For the same molecule, the IC50 in assay [4] was 3 nM.

B3: NOL48-1-D5 (eqIgG6 format) (antibody, V domains shown)
VH: QVQLQQSGGGVVQPGRSLRLSCAASGFTFSSYGMHWVRQAPGKGLEWVAVIWYDGSNKYYADSVKGRFTISRDNSKNTLYLQMNSLRAEDTAVYYCARGLYGRSYFDYWGQGTLVTVSS
VL: SYELTQPPSVSVAPGQTAKIACEGDNIGSKSVHWYQQRPGQAPVLVVYDDTDRPSGIPDRFSGSNSGNTATLTISRVEVGDEADYYCQVWDSGDGHPRVFGGGTKLTVL
notes: human VH of NOL48-1-D5 (selected from HAL9/10); human VL of NOL48-1-D5; Chimeric IgG: human VH and VL, all constant domains equine (IgG6); Selected by panning in solution; also called parental antibody; parAB; source: Expi293F suspension cells, purified (HiTrap Fibro PrismA or Protein G HP)
Regarding B3, the EC50 in assay [5] came out at 1 nM. Also, the binding result with BSA [3] is reported as “no binding (tested: 316 nM)”. Besides, the half-inhibitory concentration (IC50) in assay [4] was 6 nM and 12 nM.

B4: NOL231-1-A3 (eqIgG6 format) (antibody, V domains shown)
VH: QVQLQQSGGGVVQPGRSLRLSCAASGFTFSSYGMHWVRQAPGKGLEWVAVIWYDGSNKYYADSVKGRFTISRDNSKNTLYLQMNSLRAEDTAVYYCARGLYGRSYFDYWGQGTLVTVSS
VL: SYELTQPPSVSVAPGQTAKIACEGDNIGSKSVHWYQQRPGQAPVLVVYDDTDRPSGIPDRFSGSNSGNTATLTISRVEVGDEADYYCQVWDSGDGNPRVFGGGTKLTVL
notes: as the VH of m3 (NOL48-1-D5); as the VL of m3 (NOL48-1-D5) with H96N in the CDR3 of the VL; source: Expi293F suspension cells, purified (HiTrap Fibro PrismA or Protein G HP)
For B4, the EC50 in assay [2] came out at 0.5 nM. In addition, the binding result in the assay with BSA [3] is “no binding (tested: 316 nM)”. The molecule further returned an IC50 in assay [4] of 4 nM.

B5: NOL225-2-C1 (eqIgG6 format) (antibody, V domains shown)
VH: QVQLQQSGGGVVQPGRSLRLSCAASGFTFSSYGMHWVRQAPGKGLEWVAVIWYDGRNKYYADSVKGRFTISRDNSKNTLYLQMNSLRAEDTAVYYCARGLFGRSYFDYWGQGTLVTVSS
VL: SYELTQPPSMSVAPGQTARIACEGDNIGSKSVHWYQQRPGQAPVLVVFDDTDRPSGIPDRFSGSNSGNTATLTISRVEVGDEADYYCQVWDSGDGHPRVFGGGTKLTVL
notes: as for B2
B5 had an EC50 in assay [2] of 0.4 nM. In addition, the binding result with BSA [3] is reported as “no binding (tested: 316 nM)”. For the same molecule, the IC50 in assay [4] worked out at 4 nM.

B6: NOL226-2-D1 (antibody, V domains shown)
VH: EVQLVETGGGVVRPGRSLRLSCAASGFTFSSYGMHWVRQAPGKGLEWVAVISYDGSNKYYADSVKGRFTISRDNSKNTLYLQMNSLRAEDTAVYYCVKGFKIQLWFAAFDIWGQGTMVTVSS
VL: QSVLTQPPSVSVAPGQTARITCGGNNIGSKSVHWYQQKPGQAPVLVVYDDSDRPSGIPERFSGSNSGNTATLTIGRVESGDEADYYCQVWDSSSDPVVFGGGTKLTVL
On to B6, for which the binding result in assay [1] was “binds”.

B7: NOL162-1-F5 (eqIgG6 format) (antibody, V domains shown)
VH: EVQLVETGGGVVQPGRSLRLSCAASGFTFSSYGMHWVRQAPGKGLEWVAVISYDGSNKYYADSVKGRFTISRDNSKNTLYLQMNSLRAEDTAVYYCAKGFKIQLWFAAFDIWGQGTMVTVSS
VL: QSVLTQPPSVSVAPGQTARITCGGNNIGSKSVHWYQQKPGQAPVLVVYDDSDRPSGIPERFSGSNSGNTATLTISRVEAGDEADYYCQVWDSSSDPVVFGGGTKLTVL
notes: human VH of NOL162-1-F5 (selected from HAL9/10); human VL of NOL162-1-F5; Chimeric IgG: human VH and VL, all constant domains equine (IgG6); Selected by panning in MTP; also called parental antibody; parAB; source: Expi293F suspension cells, purified (HiTrap Fibro PrismA or Protein G HP)
With B7, the binding result with BSA [6] is “no binding (tested: 100 nM)”. In assay [5], this molecule returned an EC50 of 9 nM. For the same molecule, the IC50 is 15 nM in assay [7]; 7 nM and 12 nM in assay [4].

B8: NOL229-C3 (antibody, V domains shown)
VH: EVQLVETGGGVVQPGRSLRLSCAASGFTFRSYGMHWVRQAPGKGLEWVAVISNDGSNKYYADSVKGRFTISRDNSKNTLYLQMNSLRAEDTAVYYCAKGFKIQLWFAAFDIWGQGAMVTVSS
VL: QSVLTQPPSVSVAPGQTARITCGGNNIGSKSVHWYQQKPGQAPVLVVYDDSDRPSGIPERFSGSNTGNTATLTISRVEAGDEADYYCQVWDSSSDPVVFGGGTKLTVL
For B8, the binding result in assay [1] was “binds”.

B9: NOL226-2-G9 (antibody, V domains shown)
VH: EVQLEETGGGVVQPGRSLRLSCAASGFTFGSYGMHWVRQAPGKGLEWVAVISYDGSNKYYADSVKGRFTISRDNSKNTLYLQMNSLRAEDTAVYYCAKGFKIQLWFAAFDIWGQGTMVTVSS
VL: QSVLTQPPSISVAPGQTARITCGGNNIGSKSVHWYHQKPGQAPVLVVYDDSDRPSGIPERFSGSNSGNTATLTISRVEAGDEADYYCQVWDSSSDPVVFGGGTKLTVL
With B9, in assay [1], the binding result is recorded as “binds”.

B10: NOL226-2-D10 (eqIgG6 format) (antibody, V domains shown)
VH: EVQLVETGGGVVQPGRSLRLSCAASGFTFSSYGMHWVRQAPGKGLEWVAVISYDGSNKYYADSVKGRFTISRDNSKNTLYLQMNSLRAEDTAVYYCVKGLKIQLWFAAFDIWGQGTMVTVSS
VL: QSVLTQPPSVSVAPGQTARITCGGNNIGSKSVHWYQQKPGQAPVLVVYDDSDRPSGIPERFSGSNSGNTATLTISRVEAGDEADYYCQVWDSSSDPVVFGGGTKLTVL
notes: as the VH of m4 (NOL162-1-F5) with A97V and F100L, both in the CDR3 of the VH; as the VL of m4 (NOL162-1-F5); also called final antibody; final candidate; source: Expi293F suspension cells, purified (HiTrap Fibro PrismA or Protein G HP)
Turning to B10, in the assay with BSA [6], the binding result is given as “no binding (tested: 100 nM)”. This molecule yielded an EC50 in assay [5] of 8.8 nM. For the same molecule, the IC50 came to 9 nM in assay [7] and 4 nM in assay [4].
